Like-named read-outs stand apart in the source and are kept apart here.
Tests used:
[1] = Comparative study between intravenous and intratracheal administration of Org 42675 (plasma concentration via anti-Xa activity, amidolytic S2222); type: in vivo, male Wistar rats; conditions: male, Wistar, rat; for AUC(0-inf) / AUC(0-t) / Cmax / bioavailability: 100 nmol/kg; for bioavailability: other: intratracheal, 100 nmol/kg intratracheal vs i.v. (100%), read-out: F (% bioavailabilty)
Procedure: The test was carried out in male Wistar rats of 300-400 gr. The rats were anaesthetised by inhalation of a mixture of O2/N2O/isoflurane, after which the right jugular vein was cannulated. Translumination of the neck enabled visibility of the vocal cords and an oral needle was inserted when the vocal cords were open after which 100 μl/300 gr body weight of a solution prepared from the pharmaceutical formulation of Example 1, diluted with an aqueous 0.9% sodium chloride solution, containing 300 nmol of Org 42675/ml was instilled at approximately 1 cm before the bifurcation of the trachea. The same solution and dose was also used to perform the i.v. study. After i.v. administration blood was sampled at 1, 6, 15, 30 and 60 minutes and after 2, 4, 7 and 24 hours. After intra-tracheal administration blood was sampled at 0.5-1-2-4-7 and 24 hours after administration. Blood was centrifuged and the plasma was siphoned off and stored at −20° C. until use. The concentration of Org 42675 was measured amidolytically with S2222 (Chromogenix, Chromogenics Ltd, Molndal, Sweden) by determination of the anti-Xa activity based on the method of Teien and Lie in the obtained plasma samples against a calibration curve which was made of the stock solution of 300 nmol/ml itself. (Teien A N, Lie M. Evaluation of an amidolytic heparin assay method increased sensitivity by adding purified antithrombin III. Thromb. Res. 1977, 10: 399-410). The concentration in the samples was expressed in nmol/ml and the kinetic parameters were calculated with the noncompartment model of WinNonlin (see Tables 1 and 2). After intratracheal administration the maximum concentration was already obtained at 0.5 hour after administration which was also the first time point of blood collection.

[2] = in vivo; cited from earlier work
[3] = rabbit, in vivo; cited from earlier work
[4] = inhaled or intranasal, 100 nmol/kg intratracheal, individual rats
[5] = inhaled or intranasal, 100 nmol/kg intratracheal, mean (n=3)
[6] = iv, 100 nmol/kg intravenous, individual rats
[7] = iv, 100 nmol/kg intravenous, mean (n=2)

Row | Compound | Tmax [1, 4] [min] | AUC(0-inf) [1, 4] [µM·h] | AUC(0-t) [1, 4] [µM·h] | Cmax [1, 4] [µM] | AUC(0-inf) [1, 5] [µM·h] | AUC(0-t) [1, 5] [µM·h] | Cmax [1, 5] [µM] | AUC(0-inf) [1, 6] [µM·h] | AUC(0-t) [1, 6] [µM·h] | Cmax [1, 6] [µM] | AUC(0-inf) [1, 7] [µM·h] | AUC(0-t) [1, 7] [µM·h] | Cmax [1, 7] [µM] | bioavailability ([1]; individual rats) [%] | bioavailability ([1]; mean (n=3)) [%] | Absolute bioavailability [2] | bioavailability [3] | pharmacokinetics [3]
1 | COc1cc(C)c(S(=O)(=O)NC(CC(=O)NCCCC(=O)NCCOCCOCCOCCO[C@H]2[C@H](OC)[C@@H](OC)[C@@H](O[C@H]3[C@H](OC)[C@@H](OC)[C@H](O[C@H]4[C@H](OS(=O)(=O)O)[C@@H](OS(=O)(=O)O)[C@@H](O[C@H]5[C@H](OC)[C@@H](OC)[C@H](O[C@H]6[C@H](OC)[C@@H](OS(=O)(=O)O)[C@@H](OC)O[C@@H]6COS(=O)(=O)O)O[C@H]5C(=O)O)O[C@@H]4COS(=O)(=O)O)O[C@@H]3C(=O)O)O[C@@H]2COS(=O)(=O)O)C(=O)NC(Cc2ccc(C(=N)N)cc2)C(=O)N2CCCCC2)c(C)c1C (stereo partly drawn) [Org 42675] | 30 | 5.53 | 5.4 | 0.64 | 5.07 ± 0.24 | 4.91 | 0.77 | 8.46 | 8.35 | 3.18 | 7.32 ± 1.03 | 7.32 | 2.93 | 75.5 | 71 ± 3 |  |  | 
2 | heparin |  |  |  |  |  |  |  |  |  |  |  |  |  |  |  | 35-60% | low | poor

From patent publication US20090227528A1, “Pulmonary administration of an antithrombotic compound” (priority 2004, published 2009)
